Source: paper PMC2898433

Molecular target: GST-Kar2p (S. cerevisiae) (UniProt P16474)
Experiment: pull-down

B1: His-Sil1p (natural protein)
chain: TILHSSIHSVPSGGEIISAEDLKELEISGNSICVDNRCYPKIFEPRHDWQPILPGQELPGGLDIRINMDTGLKEAKLNDEKNVGDNGSHELIVSSEDMKASPGDYEFSSDFKEMRNIIDSNPTLSSQDIARLEDSFDRIMEFAHDYKHGYKIITHEFALLANLSLNENLPLTLRELSTRVITSCLRNNPPVVEFINESFPNFKSKIMAALSNLNDSNHRSSNILIKRYLSILNELPVTSEDLPIYSTVVLQNVYERNNKDKQLQIKVLELISKILKADMYENDDTNLILFKRNAENWSSNLQEWANEFQEMVQNKSIDELHTRTFFDTLYNLKKIFKSDITINKGFLNWLAQQCKARQSNLDNGLQERDTEQDSFDKKLIDSRHLIFG
Question: B1 was tested. Which reduction of binding in the presence of ATP did it give?
Answer: 50%
